These results are taken from PMC11046469, “Leveraging a Phage-Encoded Noncanonical Amino Acid: A Novel Pathway to Potent and Selective Epigenetic Reader Protein Inhibitors” (ACS Central Science, 2024).

Usually IC50 stands for the point on the concentration scale where inhibition reaches its midpoint. As a reminder, the Kd is a measure of binding affinity in units of concentration. Low readings indicate a tighter complex, high ones a looser complex. What is called kon is the second-order rate constant of association.

Assay [1] concerns the target T1, ENL YEATS domain (His-ENL) (Homo sapiens, UniProt Q03111).
T1 construct: (aa 1−148) was cloned in pET19b; made in house; host or cells: E. coli BL21(DE3pLysS)
T1 sequence (Q03111 1-148): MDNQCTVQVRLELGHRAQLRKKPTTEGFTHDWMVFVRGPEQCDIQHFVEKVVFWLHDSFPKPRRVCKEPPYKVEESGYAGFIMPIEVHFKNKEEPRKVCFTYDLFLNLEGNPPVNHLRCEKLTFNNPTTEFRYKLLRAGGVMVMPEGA
Nature of the assay: Biolayer interferometry (BLI) binding to ENL YEATS. The conditions noted are these: ratio KD,AF9 / KD,ENL. The text has this: To test the inhibition potency of the two selected peptides for the ENL YEATS domain, ENL-S1 and ENL-S2 were chemically synthesized through solid-phase peptide synthesis (SPPS) and evaluated by an AlphaScreen assay. In this assay, a biotinylated H3K27cr peptide and a 6xHis-tagged ENL YEATS domain (His-ENL YEATS) were immobilized on PerkinElmer streptavidin donor and nickel-chelating (Ni-NTA) acceptor beads, respectively. The use of a His-ENL YEATS instead of the original AviSUMO-ENL YEATS construct in the assay prevents potential false positive results derived from ligands which bind to the SUMO protein but not to the ENL YEATS domain. […] We then assessed the binding affinity of two ligands for the ENL YEATS domain using biolayer interferometry (BLI). Briefly, His-ENL was immobilized onto Ni-NTA functionalized biosensors to measure the binding kinetics of target peptides at different concentrations. […] As a small peptide directly selected from a phage display library, this level of high potency was unexpected. […] However, shorter-than-10-mer linear peptides with nanomolar binding potency have rarely been directly selected from phage display libraries. One example was S2P03, a 7-mer peptide that has a KD value as 49 ± 9 nM to bind to SIRT2.[10] This peptide contained BuK and was identified also from a BuK-containing phage display library using the active site-directed ligand selection technique. Taken together, the two examples confirmed that utilizing phage display libraries incorporated with a ncAA serving as a ligand for a protein target for active site-directed ligand selection is a successful method for identifying ultrahigh potency ligands for epigenetic proteins including both enzymes and readers. For ENL-S1 and ENL-S2, their determined kon and koff values were 6.23 ± 0.07 × 10^4 M^–1 s^–1, […] and […], 5.54 ± 0.02 × 10^–3 s^–1, respectively. Compared to ENL-S2, ENL-S1 has faster binding to the ENL YEATS domain and slower release from it, indicating its potential long-term action on the ENL YEATS inhibition. […]
Biolayer Interferometry to Validate ENL Ligands:
His-ENL, His-AF9 (aa 1-149, EpiCypher), His-GAS41 (aa 15-160, EpiCypher), and YEATS2-His (aa 200-345, EpiCypher) were reconstituted in water and diluted into assay buffer (20mM Tris, 300 mM NaCl, pH 7.9) for immobilization onto Octet Ni-NTA biosensors (Sartorius). Lyophilized peptides were dissolved in DMF and diluted to designated concentrations in assay buffer. Biolayer interferometry assays were performed in 96 well plates (GreinerBio-One, polypropylene, flat-bottom) using an Octet Red96 System (Sartorius). Wells were filled with 200 μL of assay buffer, blocking buffer (assay buffer + 0.1% BSA), protein solution, peptide solution, regeneration solution, and reload solution. For immobilization, His-tagged proteins were immobilized onto Ni-NTA sensors at 20 for 600 s. Sensors were then dipped into blocking buffer for 180 s, assay […] buffer for 300 s, peptide solution for 300 s, and back to assay buffer for 300 s. If multiple samples were tested, Ni-NTA sensors can be reconditioned in regeneration (10 mM glycine, pH 1.7) solution followed by reload solution (10 mM NiCl2) for 30 and 60 s, respectively. Measurements were carried out at 30 °C. Data were analyzed within the ForteBio Data Analysis software. Data were processed by double subtracting ligand only and protein only reference wells and aligning the data to the beginning of the association. Then, global kinetic fit was performed for all sensogram curves with a 1:1 model. Steady state KD values were reported.
AlphaScreen Assay with Biotinylated-ENL-S1:
The AlphaScreen assay was carried out in 384-well plates. Manual assay setup was performed in a 40 uL reaction buffer (50 mM HEPES pH 7.4, 100 mM NaCl, 0.1% bovine serum albumin, and 0.05% CHAPS). 10 µL of varying concentrations of His-ENL YEATS (0-300 nM) and 10 µL of […]
A general note: Biolayer interferometry detects binding as a change in optical thickness at a sensor tip.

The target in assay [2] is T2, NanoLuc-ENL YEATS expressed in HEK293T cells (Homo sapiens, UniProt Q03111).
T2 construct: The complementary DNA encoding ENL YEATS (aa 1-148) was cloned into pCDH-EF1-Nluc; expressed in transfected cells
T2 sequence (Q03111 1-148): T1 sequence (Q03111 1-148)
The assay is described as follows: ENL-NanoBRET cellular target engagement assay with tracer SR-0813T. The format is cell-based. The text has this: For peptides developed for intracellular targets, a common concern is their cellular permeability to engage the targets. For the ENL YEATS domain that is a nuclear protein, its inhibitors will also need to translocate to the nucleus to exert their inhibition activities. […] We attached FITC to tENL-S1o to afford FITC-tENL-S1o that could be fluorescently imaged. […] Although results from this pilot study were very encouraging, the conjugated FITC could have assisted the cellular penetration process. A more accurate assay was needed for the use of unmodified peptides. In light of this, we proceeded to use a NanoBRET assay to evaluate whether our developed peptides could permeate into cells and engage the ENL YEATS domain in the cellular melieu.[46] The NanoBRET assay is an emerging cutting-edge technique that is robust and sensitive in assessing not just cellular permeability of a developed ligand but also the ligand engagement with its protein target in the cellular environment. A significant advantage of the NanoBRET assay over the fluorophore conjugation and other approaches is allowing intact ligands to be used. […] There are three components required to gauge the peptide inhibitory potency for ENL expressed in cells through NanoBRET assays: (1) an ENL YEATS-NanoLuc luciferase fusion protein, (2) a NanoLuc luciferase substrate, and (3) a fluorescent tracer that binds specifically and reversibly to the reader channel of ENL YEATS. […] The cellular potency of peptides can be determined through the decrease in BRET as test peptides engage the ENL YEATS domain and displace the tracer. […]
Meanwhile, we established a stable cell line for NanoLuc-ENL YEATS expression. The binding of SR-0813T to […] was also validated using a fluorescence polarization assay (Figure S16).
Using the developed ENL-NanoBRET assay, we then characterized the cellular potency of our developed peptidyl inhibitors. […] The apparent intracellular affinity of tENL-S1f was further evaluated by NanoBRET at various tracer concentrations (Figure 5D). […]
Fluorescence microscopy study with FITC-6AHX-tENL-S1o: […]

Assay [3] has as its target T3, AF9 YEATS domain (human, UniProt P42568 1-138).
T3 chain: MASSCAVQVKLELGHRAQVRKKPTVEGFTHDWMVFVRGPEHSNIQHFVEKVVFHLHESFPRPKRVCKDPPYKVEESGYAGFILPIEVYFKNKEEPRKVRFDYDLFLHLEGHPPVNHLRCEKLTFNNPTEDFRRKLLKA

For assay [4], the target named is T3, AF9 YEATS domain. The assay is described as follows: AlphaScreen or HTRF; competition: AF9 YEATS and its corresponding acylated histone peptide; test peptide varied; n = 3. (In Alpha technology, singlet oxygen from a donor bead excites a nearby acceptor bead.)
Assay [5] addresses T4, 6xHis-tagged ENL YEATS domain (human, UniProt Q03111 1-148).
T4 chain: T1 sequence (Q03111 1-148)
Nature of the assay: AlphaScreen or HTRF; competition: biotinylated H3K27cr peptide on streptavidin donor beads, His-ENL YEATS on nickel-chelating (Ni-NTA) acceptor beads; test peptide varied; n = 3.

Assay [6] has as its target T5, 6xHis-tagged ENL YEATS domain, Q03111.
T5 chain: T1 sequence (Q03111 1-148)
The assay is described as follows: AlphaScreen. The conditions noted are these: chain shown with the change; n = 3; parent: 62.6 nM.

Assay [7] has as its target T4, 6xHis-tagged ENL YEATS domain. Nature of the assay: BLI; His-ENL immobilised on Ni-NTA biosensors, peptides in solution at different concentrations (set-up told for ENL YEATS; the other YEATS domains were analysed 'similarly').
Assay [8] shares this target.
Assay [9] has the same target. The assay is described as follows: BLI.
In assay [10] the target is T3, AF9 YEATS domain. The assay is described as follows: BLI.
For assay [11], the target named is T3, AF9 YEATS domain. The assay is described as follows: BLI; His-ENL immobilised on Ni-NTA biosensors, peptides in solution at different concentrations (set-up told for ENL YEATS; the other YEATS domains were analysed 'similarly').

Read-outs that look alike come from different tables or passages of the source. Where a SMILES comes first, the peptide text is derived from it. Where no end group is shown, it is not given here. The star is where a group is joined. Oxazole(5-CO) = O=C(c1cnco1)*; Crotonyl(E) = C/C=C/C(=O)*; 2Furoyl = O=C(c1ccco1)*; Butyryl = CCCC(=O)*

With `CC(=O)N[C@H](C(=O)N[C@@H](Cc1ccc(O)cc1)C(=O)N[C@@H](CS)C(=O)N[C@@H](Cc1ccc(O)cc1)C(=O)N[C@@H](CCCCNC(=O)c1ccco1)C(N)=O)C(C)C` [tENL-S1f] (Ac-VYCYK(2Furoyl)-NH2), the “Selectivity (ENL:AF9) from BLI KD values” in assay [1] is on record as 12.0 fold. In addition, the IC50 in assay [2] (0.5 μM SR-0813T tracer, read-out: NanoBRET IC50) is 4100 ± 1100 nM; in assay [2] (1.0 μM SR-0813T tracer, read-out: NanoBRET IC50), 4200 ± 1100 nM; in assay [2] (2.5 μM SR-0813T tracer, read-out: NanoBRET IC50, displacement of SR-0813T from NanoLuc-ENL), 6400 ± 1600 nM.

B1: ENL-S1f (peptide)
chain: YDVYCYK(2Furoyl)
Consider B1, for which the results for the IC50 in assay [3] and in assay [5] were 168 nM and 22 nM, respectively. In addition, the fold lower potency (IC50) toward AF9 YEATS than toward ENL YEATS in assay [4] was found to be 7.7 fold.

B2: ENL-S1o (peptide)
chain: YDVYCYK(Oxazole(5-CO))
B2: the half-inhibitory concentration (IC50) in assay [3] is 231 nM; in assay [5], 10 nM. Also, the fold lower potency (IC50) toward AF9 YEATS than toward ENL YEATS in assay [4] stood at 23 fold.

B3: ENL-S1c (peptide)
chain: YDVYCYK(Crotonyl(E))
The molecule B3 registered an IC50 in assay [3] of 347 nM. Besides, in assay [4], the fold lower potency (IC50) toward AF9 YEATS than toward ENL YEATS was 18 fold.

B4: ENL-S1 Y1A (peptide)
chain: ADVYCYK
With B4, the IC50 in [6] is 248 nM.

B5: ENL-S1 (peptide)
chain: YDVYCYK(Butyryl)
For B5, half-maximal inhibition in assay [3] (IC50) was put at 250 nM. Further, the fold lower potency (IC50) toward AF9 YEATS than toward ENL YEATS in assay [4] stood at 4 fold. In [7], this molecule returned a Kd of 36.3 nM and a kon of 62300 M⁻¹ s⁻¹. This molecule also returned an IC50 in [5] of 63 nM.

B6: tENL-S1f (peptide)
chain: Ac-VYCYK(2Furoyl)
As to B6, the decrease in qPCR of the ENL target genes HOXA9, MEIS1, MYB and MYC in MOLM-13 cells (endogenous ENL) treated with tENL-S1f at 10 and 50 μM in [8] was 30%. Also, the growth of MV4;11 cells (MLL-r leukemia line sensitive to ENL depletion; endogenous ENL) treated with tENL-S1f for 14 days in assay [8] is 50%. Further, the Kd in assay [9] worked out at 307 nM; in assay [10] it was 3670 nM. The same molecule had a fold selectivity for ENL YEATS over AF9 in assay [11] of 12 fold.
